T1: human MSLN-R1-his protein (human, UniProt Q13421 296-390)
T1 construct: Region 1 of human mesothelin, made in HEK293E cells, His-tagged; also called human MSLN-R1 protein; hMSLN-R1-his; not shown: His tag
T1 chain: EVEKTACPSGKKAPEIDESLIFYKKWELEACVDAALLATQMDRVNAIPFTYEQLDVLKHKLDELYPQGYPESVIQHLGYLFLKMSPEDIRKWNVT


Key:
[1] = target: T1, human MSLN-R1-his protein; assay: ELISA on coated MSLN-R1; no antibody (blank)
Description: (§1) The plate was sealed with a plastic film and incubated at 4° C. overnight. The next day, the plate was washed twice with PBST, and a blocking buffer [PBS+2% (w/w) BSA] was added for blocking at room temperature for 2 h. The blocking buffer was discarded, and a chimeric antibody or negative control antibody serially diluted from 100 nM was added at 50 μL/well. After incubation at 37° C. for 2 h, the plate was washed 3 times with PBST. […] After incubation at 37° C. for 2 h, the plate was washed 5 times with PBST. A TMB substrate was added at 50 μL/well for incubation at room temperature for 5-10 min, and then a stop solution (1.0 N HCl) was added at 50 μL/well.

[2] = target: T2, human MSLN-R2-his protein (human, UniProt Q13421 391-486); assay: ELISA on coated MSLN-R2; no antibody (blank)
T2 construct: Region 2 of human mesothelin, made in HEK293E cells, His-tagged; also called human MSLN-R2 protein; hMSLN-R2-his; not shown: His tag

[3] = target: T3, human MSLN-R3-his protein (human, UniProt Q13421 487-598); assay: ELISA on coated MSLN-R3; no antibody (blank)
T3 construct: Region 3 of human mesothelin, made in HEK293E cells, His-tagged; also called human MSLN-R3 protein; hMSLN-R3-his; not shown: His tag

[4] = target: T2, human MSLN-R2-his protein; assay: ELISA on coated MSLN-R2; antibody 0.001 nM
Description: as §1

[5] = target: T2, human MSLN-R2-his protein; assay: ELISA on coated MSLN-R2; antibody 10 nM
Description: as §1

[6] = target: T2, human MSLN-R2-his protein; assay: ELISA on coated MSLN-R2; antibody 1 nM
[7] = target: T3, human MSLN-R3-his protein; assay: ELISA on coated MSLN-R3; antibody 1 nM
[8] = target: T3, human MSLN-R3-his protein; assay: ELISA on coated MSLN-R3; antibody 0.1 nM
Description: as §1

[9] = target: T2, human MSLN-R2-his protein; assay: ELISA on coated MSLN-R2; antibody 0.1 nM
Description: as §1

[10] = target: T1, human MSLN-R1-his protein; assay: ELISA on coated MSLN-R1; antibody 0.01 nM
Description: as §1

[11] = target: T1, human MSLN-R1-his protein; assay: ELISA on coated MSLN-R1; antibody 0.001 nM
[12] = target: T2, human MSLN-R2-his protein; assay: ELISA on coated MSLN-R2; antibody 100 nM
Description: as §1

[13] = target: T1, human MSLN-R1-his protein; assay: ELISA on coated MSLN-R1; antibody 100 nM
[14] = target: T3, human MSLN-R3-his protein; assay: ELISA on coated MSLN-R3; antibody 100 nM
Description: as §1

[15] = target: T2, human MSLN-R2-his protein; assay: ELISA on coated MSLN-R2; antibody 0.0001 nM
[16] = target: T1, human MSLN-R1-his protein; assay: ELISA on coated MSLN-R1; antibody 10 nM
Description: as §1

[17] = target: T1, human MSLN-R1-his protein; assay: ELISA on coated MSLN-R1; antibody 0.1 nM
Description: as §1

[18] = target: T3, human MSLN-R3-his protein; assay: ELISA on coated MSLN-R3; antibody 0.0001 nM
[19] = target: T1, human MSLN-R1-his protein; assay: ELISA on coated MSLN-R1; antibody 1 nM
Description: as §1

[20] = target: T2, human MSLN-R2-his protein; assay: ELISA on coated MSLN-R2; antibody 0.01 nM
Description: as §1

[21] = target: T3, human MSLN-R3-his protein; assay: ELISA on coated MSLN-R3; antibody 0.01 nM
Description: as §1

[22] = target: T3, human MSLN-R3-his protein; assay: ELISA on coated MSLN-R3; antibody 10 nM
[23] = target: T1, human MSLN-R1-his protein; assay: ELISA on coated MSLN-R1; antibody 0.0001 nM
Description: as §1

[24] = target: T3, human MSLN-R3-his protein; assay: ELISA on coated MSLN-R3; antibody 0.001 nM
Description: as §1

T2 sequence (Q13421 other isoform, or with tags, fused parts or gaps): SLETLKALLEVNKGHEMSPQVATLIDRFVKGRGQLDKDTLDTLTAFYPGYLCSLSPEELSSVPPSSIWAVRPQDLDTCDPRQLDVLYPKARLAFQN
T3 sequence (Q13421 495-606): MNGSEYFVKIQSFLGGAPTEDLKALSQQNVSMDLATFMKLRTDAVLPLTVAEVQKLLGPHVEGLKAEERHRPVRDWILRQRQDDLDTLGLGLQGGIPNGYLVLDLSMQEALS

OD450 [1] | OD450 [2] | OD450 [3] | OD450 [4] | OD450 [5] | OD450 [6] | OD450 [7] | OD450 [8] | OD450 [9] | OD450 [10] | OD450 [11] | OD450 [12] | OD450 [13] | OD450 [14] | OD450 [15] | OD450 [18] | OD450 [20] | OD450 [21] | OD450 [22] | OD450 [24] | Binder | also measured
0.04 OD450 | 0.05 OD450 | 0.03 OD450 | 0.04 OD450 | 0.05 OD450 | 0.04 OD450 | 2.23 OD450 | 1.38 OD450 | 0.04 OD450 | 0.04 OD450 | 0.04 OD450 | 0.07 OD450 | 0.09 OD450 | 2.4 OD450 | 0.04 OD450 | 0.06 OD450 | 0.04 OD450 | 0.5 OD450 | 2.03 OD450 | 0.11 OD450 | S009-F8-9.16 (antibody, human IgG1, kappa, V domains shown) VH: EVHLQQSGPVLVKPGASVKMSCKASGYTFTDYFMNWVKQSHGKSLEWIGVINPHNGYVNYNQKFQGRATLTVDKSSSTVYMELNSLTSEDSAVYHCARSAESAWFAYWGQRTLVTVSA VL: DVLMTQTPLSLPVSLGDQVSISCRSSQSIVHVKGNTYLEWYLQKPGQSPELLIYKVSNRFSGVPDRFSGGGSGTDFTLKISRVEPEDLGVYYCFQGSHLPYTFGGGTKLEIKR | OD450 [16]: 0.05 OD450; OD450 [17]: 0.04 OD450; OD450 [19]: 0.04 OD450; OD450 [23]: 0.04 OD450
0.05 OD450 | 0.05 OD450 | 0.05 OD450 | 0.05 OD450 | 0.05 OD450 | 0.04 OD450 | 0.04 OD450 | 0.04 OD450 | 0.04 OD450 | 0.05 OD450 | 0.05 OD450 | 0.05 OD450 | 2.29 OD450 | 0.06 OD450 | 0.05 OD450 | 0.04 OD450 | 0.04 OD450 | 0.04 OD450 | 0.05 OD450 | 0.05 OD450 | S009-F8-5.15 (antibody, human IgG1, kappa, V domains shown) VH: QVQLQQPGTELVKPGASVKLSCKASGYTFTSYWMHWVKQRPGQGLEWIGHSNPSNGGTNYNEKFKSKATLTVDKSSSTAYMQLSSLTSEDSAVYYCARWVRGSNYEYFDVWGTGTTVTVSS VL: DIVMTQSQKFMSTTVGDRVSIICKASQNVGSAVAWCQQKPGQSPKLLIYSASNRYTGVPDRFTGSGSGTDFTLTISNMQSEDLADYFCQQYSSYPLTFAGGTKLEIKR | OD450 [16]: 1.65 OD450; OD450 [17]: 0.12 OD450; OD450 [19]: 0.68 OD450; OD450 [23]: 0.04 OD450
0.06 OD450 | 0.04 OD450 | 0.04 OD450 | 0.05 OD450 | 0.05 OD450 | 0.04 OD450 | 0.05 OD450 | 0.04 OD450 | 0.04 OD450 | 0.61 OD450 | 0.16 OD450 | 0.09 OD450 | 2.63 OD450 | 0.15 OD450 | 0.05 OD450 | 0.04 OD450 | 0.04 OD450 | 0.04 OD450 | 0.08 OD450 | 0.04 OD450 | S009-F8-8.22 (antibody, human IgG1, kappa, V domains shown) VH: EVQLQQSGPELVKPGASVKMSCKASGYTFTDYIIHWVKQSHGKSLEWIAYIFPNNGGTGYNQKFRGKATLTVNKSSSTAYMELRSLTSEDSAVYYCARWRLRQYFDVWGTGTTVTVSS VL: DIVMTQSQKFMSTIVGDRVSITCKASQNVGTAVAWYQQKPGQSPKLLIYSASNRYTGVPDRFTGSGSGTDFTLTISNMQSEDLADYFCQQYSSYPLTFGGGTKLEIKR | OD450 [16]: 2.63 OD450; OD450 [17]: 1.78 OD450; OD450 [19]: 2.46 OD450; OD450 [23]: 0.08 OD450
0.05 OD450 | 0.05 OD450 | 0.06 OD450 | 0.05 OD450 | 0.06 OD450 | 0.05 OD450 | 0.05 OD450 | 0.05 OD450 | 0.05 OD450 | 0.05 OD450 | 0.05 OD450 | 0.08 OD450 | 0.24 OD450 | 0.12 OD450 | 0.05 OD450 | 0.05 OD450 | 0.05 OD450 | 0.04 OD450 | 0.07 OD450 | 0.05 OD450 | S009-F8-4.5 (antibody, human IgG1, kappa, V domains shown) VH: QVQLQQPGAELVKPGASVKLSCKASGYTFTIYWMHWVKQRPGQGLEWIGMIHPNSGNTNYNEKFKSKATLTVDKSSSTAYMQLSSLTSEDSAVYYCSLIHWYFDVWGTGTTVTVSS VL: QIVLTQSPAIMSASPGEKVTMTCSASSSVSYMYWYQQKPGSSPRLLIYDTSNLASGVPVRFSGSGSGTSYSLTISRMEAEDAATYYCQQWSSYPLTFGAGTKLELKR | OD450 [16]: 0.09 OD450; OD450 [17]: 0.05 OD450; OD450 [19]: 0.05 OD450; OD450 [23]: 0.05 OD450
0.05 OD450 | 0.05 OD450 | 0.05 OD450 | 0.04 OD450 | 0.07 OD450 | 0.05 OD450 | 0.06 OD450 | 0.05 OD450 | 0.05 OD450 | 1.18 OD450 | 0.52 OD450 | 0.15 OD450 | 2.17 OD450 | 0.2 OD450 | 0.04 OD450 | 0.04 OD450 | 0.05 OD450 | 0.04 OD450 | 0.1 OD450 | 0.05 OD450 | S009-F8-12.13 (antibody, human IgG1, kappa, V domains shown) VH: QVQLQQPGAELVKPGASVKLSCKASGYTFTSYWMHWVKQRPGQGLEWIGMIHPNSGSTNYNEKFKSKATLTVDKSSSTAYMQLSSLTSEDSAVYYCARRTPIITLVGHWYFDVWGTGTTVTVSS VL: DIVMTQSHKFMSTSVGDRVSITCKASQDVGTAVAWYQQKPGQSPKLLIYWASTRHTGVPDRFTGSGSGTDFTLTISNVQSEDLADYFCQQYSSYPLTFGAGTKLELKR | OD450 [16]: 2.16 OD450; OD450 [17]: 1.97 OD450; OD450 [19]: 2.06 OD450; OD450 [23]: 0.32 OD450
– | 0.04 OD450 | 0.04 OD450 | 0.04 OD450 | 0.06 OD450 | 0.04 OD450 | 1.99 OD450 | 1.38 OD450 | 0.04 OD450 | – | – | 0.22 OD450 | – | 2.28 OD450 | 0.04 OD450 | 0.09 OD450 | 0.04 OD450 | 0.52 OD450 | 1.81 OD450 | 0.14 OD450 | Tab106 (YP218, hIgG1) (antibody, V domains shown, also called YP218 human IgG1 antibody) VH: QQQLEESGGGLVKPEGSLTLTCKASGFDLGFYFYACWVRQAPGKGLEWIACIYTAGSGSTYYASWAKGRFTISKASSTTVTLQMTSLAAADTATYFCARSTANTRSTYYLNLWGPGTLVTVSS VL: DVVMTQTPASVSEPVGGTVTIKCQASQRISSYLSWYQQKPGQRPKLLIFGASTLASGVPSRFKGSGSGTEYTLTISDLECADAATYYCQSYAYFDSNNWHAFGGGTEVVVRT | –
